Experimental data reported in article doi:10.1101/2020.07.13.201285 (bioRxiv, 2020).

Molecular target: the molecule itself
Assay: cross-linking

B1: recombinant human glutamine:fructose-6-phosphate amidotransferase 2 with C-terminal HisTag (rhGFAT2-his) (enzyme, UniProt O94808 2-682, looked up)
chain: CGIFAYMNYRVPRTRKEIFETLIKGLQRLEYRGYDSAGVAIDGNNHEVKERHIQLVKKRGKVKALDEELYKQDSMDLKVEFETHFGIAHTRWATHGVPSAVNSHPQRSDKGNEFVVIHNGIITNYKDLRKFLESKGYEFESETDTETIAKLIKYVFDNRETEDITFSTLVERVIQQLEGAFALVFKSVHYPGEAVATRRGSPLLIGVRSKYKLSTEQIPILYRTCTLENVKNICKTRMKRLDSSACLHAVGDKAVEFFFASDASAIIEHTNRVIFLEDDDIAAVADGKLSIHRVKRSASDDPSRAIQTLQMELQQIMKGNFSAFMQKEIFEQPESVFNTMRGRVNFETNTVLLGGLKDHLKEIRRCRRLIVIGCGTSYHAAVATRQVLEELTELPVMVELASDFLDRNTPVFRDDVCFFISQSGETADTLLALRYCKDRGALTVGVTNTVGSSISRETDCGVHINAGPEIGVASTKAYTSQFISLVMFGLMMSEDRISLQNRRQEIIRGLRSLPELIKEVLSLEEKIHDLALELYTQRSLLVMGRGYNYATCLEGALKIKEITYMHSEGILAGELKHGPLALIDKQMPVIMVIMKDPCFAKCQNALQQVTARQGRPIILCSKDDTESSKFAYKTIELPHTVDCLQGILSVIPLQLLSFHLAVLRGYDVDFPRNLAKSVTVE
stoichiometry N: 4
